Experimental data taken from US12091680B2, “Method for differentiation induction in cultured stem cells” (RIKEN, priority 2009, dated 2024).

B1: TGF-beta2: growth factor tested at 1000 ng/ml in place of Nodal; printed as 'TGF-beta1 or 2' (protein, UniProt P61812 303-414, looked up)
Transforming growth factor …: ALDAAYCFRNVQDNCCLRPLYIDFKRDLGWKWIHEPKGYNANFCAGACPYLWSSDTQHSRVLSLYNTINPEASASPCCVSQDLEPLTILYYIGKTPKIEQLSNMIVKSCKCS
B2: Nodal: Recombinant Mouse Nodal (R&D); acts on cell surface receptors common with Activin and activates Smad2/3 signals (protein, UniProt P43021 245-354, looked up)
Nodal: HHLPDRSQLCRRVKFQVDFNLIGWGSWIIYPKQYNAYRCEGECPNPVGEEFHPTNHAYIQSLLKRYQPHRVPSTCCAPVKTKPLSMLYVDNGRVLLEHHKDMIVEECGCL
B3: Activin: Human Activin (R&D); acts on cell surface receptors common with Nodal and activates Smad2/3 signals (protein, UniProt P08476 311-426, looked up)
Inhibin beta A chain: GLECDGKVNICCKKQFFVSFKDIGWNDWIIAPSGYHANYCEGECPSHIAGTSGSSLSFHSTVINHYRMRGHSPFANLKSCCVPTKLRPMSMLYYDDGQNIIKKDIQNMIVEECGCS

System: Rx-GFP ES cells
Assay: SFEBq culture with purified laminin/entactin and Nodal/Activin, formation of RxGFP+ vesicles and cup structures (Example 6)
Type: cell-based, mouse
Details: for replacement of the retinal inducing activity of Nodal: 1000 ng/ml; for replacement of the retinal inducing activity of Nodal / appearance of Rx-GFP+ epithelia in SFEBq aggregates / morphology of Rx-GFP+ epithelia: combined with laminin+entactin; for appearance of Rx-GFP+ epithelia in SFEBq aggregates / morphology of Rx-GFP+ epithelia: treatment days 1-7; for appearance of Rx-GFP+ epithelia in SFEBq aggregates: Nodal 500 and 1000 ng/ml, Activin 250 ng/ml, read on day 7; for morphology of Rx-GFP+ epithelia: day 7 and day 10; for effect on neural (Sox1) and retinal (Rx) differentiation: treatment of SFEBq cells from day 0
Experimental: Rx-GFP ES cells (3000 cells/well, 96-well plate) were cultured in SFEBq culture with G-MEM supplemented with 1.5% KSR. In this experiment, instead of adding Matrigel to culture, purified laminin and entactin (High concentration Laminin/Entactin complex; BD; 120 μg/ml) were added as extracellular matrix proteins on day 1 (24 hours after the onset of differentiation culture). Recombinant Mouse Nodal (R&D; 500-1000 ng/mL) or Human Activin (R&D; 250 ng/ml) was also added on day 1 and the Nodal treatment was continued until day 7. SFEBq aggregates were cultured for 7-10 days and the formation of RxGFP+ vesicles and cup structures were examined under a fluorescent microscope. Nodal and Activin are known to act on common cell surface receptors and activate Smad2/3 signals in the cell.

Molecule	replacement of the retinal inducing activity of Nodal	appearance of Rx-GFP+ epithelia in SFEBq aggregates	morphology of Rx-GFP+ epithelia	effect on neural (Sox1) and retinal (Rx) differentiation
TGF-beta1: growth factor tested at 1000 ng/ml in place of Nodal	did not replace the inducing activity of Nodal			
B1	did not replace the inducing activity of Nodal			
B2		large patches of Rx-GFP+ epithelia appeared	formed optic vesicle-like sacs on day 7 and later exhibited the optic cup-like morphology on day 10	inhibited both neural (Sox1) and retinal (Rx) differentiation
B3		large patches of Rx-GFP+ epithelia appeared	formed optic vesicle-like sacs on day 7 and later exhibited the optic cup-like morphology on day 10	inhibited both neural (Sox1) and retinal (Rx) differentiation
